Drawing on the RNAGym collection of RNA variant scans (doi:10.1093/molbev/msab373), this text covers reverse-splicing fitness for 84 variants.

B1: Azoarcus group I ribozyme (parent)
chain: GUGCCUUGCGCCGGGAAACCACGCAAGGGAUGGUGUCAAAUUCGGCGAAACCUAAGCGCCCGCCCGGGCGUAUGGCAACGCCGAGCCAAGCUUCGGCGCCUGCGCCGAUGAAGGUGUAGAGACUAGACGGCACCCACCUAAGGCAAACGCUAUGGUGAAGGCAUAGUCCAGGGAGUGGCGAAAGUCACACAAACCGG

The variants in this data set derive from B1. Nature of the data set: reverse-splicing fitness (ratio to wild type); higher = more active; in vitro selection; Mg2+ level not given. In a few lines: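 An in vitro group I ribozyme library with randomized positions was T7-transcribed and gel-purified. In triplicate, 10 pmol RNA in EPPS pH 7.5 was reacted with 50 pmoles of a 30-nt RNA substrate for 1 h at 37 °C across several added MgCl2 levels (1–48 mM), then stopped with EDTA. Products were reverse transcribed from a substrate-complementary primer, PCR-amplified and sequenced (HiSeq 4000). Fitness is a variant's read proportion after selection over that before, normalised to wild type.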
For the variant A111U A145U C150A U176G, the reverse-splicing fitness is 0.0853.

C82G A111C A120G A145U U176A: the reverse-splicing fitness came to 0.016.

C82A A111U A120G A145C C150A: the reverse-splicing fitness turned out to be 0.00759.

Regarding C82G A111G A120U A145U C169U U176A, the reverse-splicing fitness turned out to be 0.00226.

On to C82U A111G A120U A145C C150U C169U U176C, for which the reverse-splicing fitness was 0.00222.

In the case of A120U A145U C169A U176A, the reverse-splicing fitness is 0.00339.

Turning to C82A A111C C150A C169G U176A, the reverse-splicing fitness was 0.0151.

Take A111C A120U A145U C169G U176A: the reverse-splicing fitness was found to be 0.00434.

As to C82U A145G U176G, the reverse-splicing fitness amounted to 0.125.

In the case of C82U A120C C150A U176A, the reverse-splicing fitness turned out to be 0.0163.

On to C82G A120G A145C C150G U176G, for which the reverse-splicing fitness is 0.00333.

Take C82A A111G A145U C150U C169G: the reverse-splicing fitness is 0.00926.

As for C82A A111G A145U C150U C169U, the reverse-splicing fitness was found to be 0.0118.

Take C82A A120C A145G C150A U176G: the reverse-splicing fitness was determined as 0.00982.

As to C82U A111G A120U C150G C169A U176A, the reverse-splicing fitness was determined as 0.00509.

In the case of A111U A145G U176A, the reverse-splicing fitness came to 0.701.

In the case of C82A A111U A120G A145C C169U U176C, the reverse-splicing fitness was found to be 0.0136.

In the case of A111U A120U A145C C150G C169U U176C, the reverse-splicing fitness amounted to 0.0029.

Turning to C82A A145C C150G C169A U176G, the reverse-splicing fitness came out at 0.00669.

In the case of A120G C150G C169A U176A, the reverse-splicing fitness was determined as 0.0128.

For the variant C82G A111G A120G A145G C150U U176G, the reverse-splicing fitness came out at 0.00823.

C82A A111C A120G A145U C150G: the reverse-splicing fitness amounted to 0.00701.

Regarding C82A A120U A145U C150A U176G, the reverse-splicing fitness was found to be 0.00276.

As for C82A A111G A120C A145G C169A U176C, the reverse-splicing fitness amounted to 0.0269.

With C82A A120G A145G C150A C169G U176A, the reverse-splicing fitness was found to be 0.018.

C82U A120U A145G C150A C169G U176A: the reverse-splicing fitness was 0.00525.

In the case of C82G A111U A120U A145U C150G C169U U176G, the reverse-splicing fitness came out at 0.00286.

With A111G A145C C150G C169U U176G, the reverse-splicing fitness stood at 0.00527.

As to C82A A111G A120G A145C C150A C169U U176C, the reverse-splicing fitness was 0.0117.

As for C82G A111G A120U A145C C150U C169A, the reverse-splicing fitness amounted to 0.00231.

In the case of C82G A111G A120C C150A C169U, the reverse-splicing fitness came to 0.0123.

Regarding C82U A111G A145U C169A U176A, the reverse-splicing fitness amounted to 0.00885.

As to A111G A120C A145C C150A C169U U176C, the reverse-splicing fitness was determined as 0.012.

Consider C82U A120U A145C C150U C169G U176G, for which the reverse-splicing fitness was found to be 0.00153.

A111U A120U A145C C169A U176A: the reverse-splicing fitness was found to be 0.0026.

In the case of A145U C150G C169U, the reverse-splicing fitness was found to be 0.0635.

Consider C82G A111G A120U A145C C150U, for which the reverse-splicing fitness was determined as 0.0153.

For C82A A120C C150A C169U U176C, the reverse-splicing fitness amounted to 0.0137.

On to A111G A120C C150G U176C, for which the reverse-splicing fitness turned out to be 0.036.

On to A111G A120G A145G C150G C169U U176C, for which the reverse-splicing fitness came to 0.0152.

With A145C C150G U176C, the reverse-splicing fitness stood at 0.388.

Consider C82U A111C A120C C150A C169A U176C, for which the reverse-splicing fitness came out at 0.0136.

Consider C82A A111C A145U U176C, for which the reverse-splicing fitness came out at 0.0939.

In the case of C82U A145C C150U C169G U176G, the reverse-splicing fitness came out at 0.0047.

On to C82A A111C A120G A145U U176A, for which the reverse-splicing fitness was 0.0134.

C82A A111G A120C A145U C169A U176A: the reverse-splicing fitness came to 0.0138.

For C82U A111C A120G A145G C150A U176A, the reverse-splicing fitness worked out at 0.0093.

In the case of C82G A111C A120U A145U C150U C169G U176C, the reverse-splicing fitness came to 0.00346.

A120C A145G C150U U176A: the reverse-splicing fitness is 0.626.

Consider C82A A111C A120C C150U C169U, for which the reverse-splicing fitness came to 0.0115.

As for C82U A111U A120G A145U C150U C169A U176C, the reverse-splicing fitness is 0.00959.

As for C82G A111C A120G C150A, the reverse-splicing fitness was 0.0103.

In the case of C82U A120C C150G U176G, the reverse-splicing fitness is 0.00299.

Turning to C82A A111G A120U C169U U176C, the reverse-splicing fitness is 0.00427.

A111G A120C A145U C150U C169G: the reverse-splicing fitness worked out at 0.0111.

For A120U A145C C150G C169G U176C, the reverse-splicing fitness was 0.00281.

Consider C82U A111U A120G C169G U176C, for which the reverse-splicing fitness was determined as 0.0225.

C82U A120U C150U C169G U176A: the reverse-splicing fitness came to 0.0036.

Regarding C82G A111C A120C A145C C150A C169U U176A, the reverse-splicing fitness amounted to 0.0176.

For C82A A111C A145G C169A U176G, the reverse-splicing fitness was determined as 0.0069.

On to A111G A120C A145G C169U U176C, for which the reverse-splicing fitness turned out to be 0.0832.

Consider C82A A111G A120U A145G C150G C169A U176A, for which the reverse-splicing fitness amounted to 0.0108.

For the variant A111U A120G A145G C150A C169A, the reverse-splicing fitness was determined as 0.0192.

As for C82U A111U A120G A145G C169G, the reverse-splicing fitness was 0.00995.

Turning to C82G A111G A120U A145U C169G, the reverse-splicing fitness came out at 0.00363.

As for C82A A120U A145U C169U, the reverse-splicing fitness turned out to be 0.0055.

Turning to C82G A120G A145G C150A C169G, the reverse-splicing fitness amounted to 0.0133.

On to A111C A120G A145C C169G U176C, for which the reverse-splicing fitness was determined as 0.0399.

Consider A120C A145G C169A U176A, for which the reverse-splicing fitness stood at 0.0215.

For the variant C82U A111U A145C U176G, the reverse-splicing fitness was 0.0247.

For C82U A111U A145C U176A, the reverse-splicing fitness turned out to be 0.0966.

On to A111U A120U A145G C150U C169U U176C, for which the reverse-splicing fitness turned out to be 0.0144.

In the case of C82G A111U A120U A145C C150A C169A U176C, the reverse-splicing fitness is 0.00215.

On to A120C A145U C150G C169A U176A, for which the reverse-splicing fitness was determined as 0.0113.

On to C82A A111C A120G A145G U176G, for which the reverse-splicing fitness is 0.00581.

Turning to C82G A111G A120C A145G C150A C169A U176A, the reverse-splicing fitness is 0.0208.

Take C82U A111U A120C A145C C150G C169A U176A: the reverse-splicing fitness was determined as 0.00641.

Take A145U C150U C169A U176A: the reverse-splicing fitness is 0.0236.

As to A111G A120C A145G C169G U176A, the reverse-splicing fitness was found to be 0.019.

As to C82G A111G A120G A145C C150G, the reverse-splicing fitness amounted to 0.00711.

Consider C82U A111C A120U A145C C150G C169G U176C, for which the reverse-splicing fitness worked out at 0.00262.

On to C82U A120G A145G C169U U176A, for which the reverse-splicing fitness amounted to 0.0237.

For the variant C82G A111G A120C A145G C150U U176A, the reverse-splicing fitness came out at 0.0189.

Turning to A111C A120C A145G C150A, the reverse-splicing fitness was determined as 0.0979.
